Laboratory results: patent publication US8541236B2, “Mutant apolipoprotein A-1 polypeptide with increased resistance to oxidation and reactive carbonyls” (University of Washington, priority 2006, dated 2013)
“Also recorded” adds a separate entry of the source.

Legend:
[1] = ESI-MS analysis of chlorination after incubation with HOCl; assay type: physicochemical; conditions: incubated in the presence of HOCl
[2] = molecular target: T1, ABCA1 (Homo sapiens, UniProt O95477); experiment: Radiolabeled cholesterol efflux assay from ABCA1-transfected BHK cells; assay type: cell-based; set-up: expressed in transfected cells; host or cells: BHK (baby hamster kidney) cells, mifepristone-inducible GeneSwitch system; conditions: for cholesterol efflux promoted: after oxidation by the MPO system
T1 sequence (O95477 whole entry): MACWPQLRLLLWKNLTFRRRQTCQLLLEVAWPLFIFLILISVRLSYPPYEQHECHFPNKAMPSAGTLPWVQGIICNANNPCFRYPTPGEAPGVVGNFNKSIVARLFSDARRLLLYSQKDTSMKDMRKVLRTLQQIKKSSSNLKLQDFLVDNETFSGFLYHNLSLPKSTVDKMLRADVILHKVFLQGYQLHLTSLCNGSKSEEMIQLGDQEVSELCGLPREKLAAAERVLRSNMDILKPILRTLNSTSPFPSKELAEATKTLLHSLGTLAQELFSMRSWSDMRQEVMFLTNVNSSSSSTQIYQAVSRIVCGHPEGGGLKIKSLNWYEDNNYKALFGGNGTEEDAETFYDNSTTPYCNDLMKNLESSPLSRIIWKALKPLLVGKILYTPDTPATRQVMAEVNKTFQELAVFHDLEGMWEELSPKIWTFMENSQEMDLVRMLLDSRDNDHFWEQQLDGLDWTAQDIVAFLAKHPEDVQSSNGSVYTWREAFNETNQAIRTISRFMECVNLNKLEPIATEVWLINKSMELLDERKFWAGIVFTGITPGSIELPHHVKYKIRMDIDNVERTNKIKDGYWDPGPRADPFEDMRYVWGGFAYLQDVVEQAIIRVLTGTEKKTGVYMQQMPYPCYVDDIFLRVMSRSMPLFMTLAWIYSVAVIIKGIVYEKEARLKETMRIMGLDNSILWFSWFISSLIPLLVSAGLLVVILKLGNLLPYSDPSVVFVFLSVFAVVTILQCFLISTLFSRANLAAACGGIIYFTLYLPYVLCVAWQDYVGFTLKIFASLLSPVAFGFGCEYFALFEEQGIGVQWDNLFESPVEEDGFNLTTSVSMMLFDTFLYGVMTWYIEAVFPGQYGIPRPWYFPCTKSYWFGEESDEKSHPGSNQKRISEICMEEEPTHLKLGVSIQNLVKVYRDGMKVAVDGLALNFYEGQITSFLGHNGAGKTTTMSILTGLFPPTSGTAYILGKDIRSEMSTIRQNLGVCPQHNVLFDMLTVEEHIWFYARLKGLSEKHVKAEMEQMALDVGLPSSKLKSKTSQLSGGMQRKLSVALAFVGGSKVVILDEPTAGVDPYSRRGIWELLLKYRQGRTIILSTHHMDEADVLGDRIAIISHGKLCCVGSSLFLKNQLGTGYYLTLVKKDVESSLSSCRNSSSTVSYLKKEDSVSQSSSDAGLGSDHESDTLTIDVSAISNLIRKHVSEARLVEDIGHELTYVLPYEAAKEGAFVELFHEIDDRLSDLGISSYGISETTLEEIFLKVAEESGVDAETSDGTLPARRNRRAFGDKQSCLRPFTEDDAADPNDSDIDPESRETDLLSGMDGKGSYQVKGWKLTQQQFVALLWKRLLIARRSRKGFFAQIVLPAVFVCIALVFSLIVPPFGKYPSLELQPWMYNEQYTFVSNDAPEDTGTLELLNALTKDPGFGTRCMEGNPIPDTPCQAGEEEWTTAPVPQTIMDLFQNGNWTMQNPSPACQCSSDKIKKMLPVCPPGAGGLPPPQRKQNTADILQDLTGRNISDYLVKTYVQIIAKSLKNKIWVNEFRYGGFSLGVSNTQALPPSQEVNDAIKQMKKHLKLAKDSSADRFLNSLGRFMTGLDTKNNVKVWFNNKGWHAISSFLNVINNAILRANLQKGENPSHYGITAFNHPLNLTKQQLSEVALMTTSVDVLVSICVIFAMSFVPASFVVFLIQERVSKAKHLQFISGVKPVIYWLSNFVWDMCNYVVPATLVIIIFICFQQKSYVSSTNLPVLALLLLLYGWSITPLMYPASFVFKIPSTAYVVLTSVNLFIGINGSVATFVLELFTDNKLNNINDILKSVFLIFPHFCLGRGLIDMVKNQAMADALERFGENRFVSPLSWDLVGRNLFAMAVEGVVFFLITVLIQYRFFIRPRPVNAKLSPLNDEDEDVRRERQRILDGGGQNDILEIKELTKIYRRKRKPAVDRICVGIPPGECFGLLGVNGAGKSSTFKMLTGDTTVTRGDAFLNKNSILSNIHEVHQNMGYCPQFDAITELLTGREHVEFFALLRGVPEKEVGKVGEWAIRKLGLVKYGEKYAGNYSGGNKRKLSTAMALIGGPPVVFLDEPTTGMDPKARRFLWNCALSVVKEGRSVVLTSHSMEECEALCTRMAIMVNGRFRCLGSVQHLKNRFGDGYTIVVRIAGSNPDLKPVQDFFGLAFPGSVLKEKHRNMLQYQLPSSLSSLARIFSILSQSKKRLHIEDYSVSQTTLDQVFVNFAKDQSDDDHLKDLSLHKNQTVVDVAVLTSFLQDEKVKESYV
Description: The effect of oxidant treatment of apoA-I on the ability of apoA-I to promote cholesterol efflux from cells via the ABCA1 pathway was measured as follows.
A radiolabeled cholesterol efflux assay from ABCA1-transfected cells was carried out as described in Shao, et al., J. Biol. Chem. 280(7):5983-5993, 2005. Briefly described, baby hamster kidney (BHK) cells expressing mifepristone-inducible human ABCA1 were generated as described in Vaughan, A. M., et al., J. Lipid. Res. 44:1373-1380, 2003. Cellular cholesterol was labeled by adding 1 μCi/ml [^3H]cholesterol (Perkin Elmer Life Sciences) to the growth medium. Twenty-four hours later, strong expression of ABCA1 was induced by incubating the cells for 20 h with Dulbecco's modified Eagle's medium containing 1 mg/ml bovine serum albumin and 1 nM mifepristone. To measure cholesterol efflux, mock or ABCA1-transfected cells were incubated with Dulbecco's modified Eagle's medium/bovine serum albumin with or without apoA-I treated under the following conditions:
(1) purified apoA-I was treated for 1 hour with increasing concentrations of HOCl, H2O2 with MPO plus NACl, ONOO, or H2O2 with MPO plus NO2;
(2) purified apoA-I was treated for 24 hours with a molar ratio (mol:mol) of 0, 1:25, or 1:50 of acrolein; and
(3) peptide 2F was treated for 1 hour with a 25 molar excess of HOCl.
After 2 hour incubations with apoA-I, the medium and cells were assayed for [^3H]cholesterol as described in Vaughan, A. M., et al., J. Lipid. Res. 44:1373-1380, 2003. Cholesterol efflux mediated by apoA-I was calculated as the percentage of total [^3H]cholesterol (medium plus cells) released into the medium after subtracting the value obtained with Dulbecco's modified Eagle's medium/bovine serum albumin alone. Acrolein adducts of K226 were measured by MS.
BHK cells transfected with a mifepristone-inducible GeneSwitch (Invitrogen) system containing a human ABCA1 cDNA were incubated with serum-free medium with or without 10 nM mifipristone for 24 h to generate cells expressing virtually no or high levels of ABCA1, respectively (see Vaughan, A. M., and J. F. Oram, J. Lipid Res. 44:1373-1380, 2003). To radiolabel cellular cholesterol, [^3H]cholesterol was added to the acetyl LDL medium for macrophages and the growth medium prior to ABCA1 induction for BHK cells. Efflux of [^3H]cholesterol was measured after a 2 h incubation in medium with or without apoA-I (Tang, C., et al., J. Biol. Chem. 279:7622-7628, 2004).

[3] = Denaturing SDS-PAGE analysis of oxidant-treated apoA-I; assay type: physicochemical
Description: In order to analyze the effects of HOCl and acrolein on apoA-I structure, purified apoA-I was treated with a molar ratio of HOCl at mol:mol concentrations of 0, 5, 10, or 25; or with a molar ratio of acrolein at mol:mol concentrations of 0, 1, 2, 5, 10, or 20.

[4] = Far UV circular dichroism of HOCl-treated apoA-I; assay type: physicochemical; conditions: treated 1 hour with HOCl
Description: Secondary structure of apoA-I was determined using far UV circular dichroism.

[5] = Thioflavin T binding assay and electron microscopy for amyloid formation; assay type: physicochemical
Description: A thioflavin T binding assay was used to investigate whether chlorination of apoA-I promotes amyloid formation. Thioflavin T is known to bind rapidly to amyloid fibrils and undergoes a dramatic increase in fluorescence at 485 nm upon excitation at 455 nm (see Naiki, H., et al., Anal. Biochem. 177:244-249, 1989). apoA-I was chlorinated by treatment with HOCl or the MPO system and a time course of thioflavin T binding to treated apoA-I was carried out over 60 minutes as shown in FIG. 6B.

[6] = molecular target: T2, Lecithin Cholesterol Acyltransferase (LCAT) (Homo sapiens, UniProt P04180); experiment: Activation of LCAT after oxidation with MPO; assay type: biochemical; conditions: apoA-I exposed to MPO
T2 sequence (P04180 25-440): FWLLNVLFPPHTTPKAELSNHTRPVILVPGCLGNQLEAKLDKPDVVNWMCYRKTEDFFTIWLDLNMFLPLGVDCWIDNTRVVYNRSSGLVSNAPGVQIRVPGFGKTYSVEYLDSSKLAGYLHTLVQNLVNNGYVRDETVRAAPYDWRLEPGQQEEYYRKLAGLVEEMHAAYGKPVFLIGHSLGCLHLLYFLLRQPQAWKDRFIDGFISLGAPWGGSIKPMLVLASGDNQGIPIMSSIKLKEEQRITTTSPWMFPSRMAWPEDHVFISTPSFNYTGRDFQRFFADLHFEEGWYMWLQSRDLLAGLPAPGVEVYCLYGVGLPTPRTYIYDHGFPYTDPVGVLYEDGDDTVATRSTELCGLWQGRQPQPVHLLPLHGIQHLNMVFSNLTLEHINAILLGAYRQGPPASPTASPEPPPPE
Description: Reactions with isolated HDL (1 mg protein/ml) were carried out at 37° C. for 1 h in 50 mM sodium phosphate buffer (pH 7.4) containing 100 uM DTPA and 100 nM MPO. Reactions were initiated by adding hydrogen peroxide and terminated by adding a 20-fold molar excess (relative to peroxide) of Met.

[7] = molecular target: T1, ABCA1; experiment: Radiolabeled cholesterol efflux assay from ABCA1-transfected BHK cells; assay type: cell-based; set-up: expressed in transfected cells; host or cells: BHK (baby hamster kidney) cells, mifepristone-inducible GeneSwitch system; conditions: apoA-I treated with increasing concentrations of MDA
[8] = test system: Baby Hamster Kidney (BHK) cells transfected with a transfection vector alone (Mock); experiment: 3H-cholesterol efflux from Mock-transfected BHK cells (ABCA1-independent, Example 11); assay type: cell-based; conditions: 20 μg/ml peptide, HOCl-treated (5 molar ratio HOCl to peptide), 4 hours
Description: (§1) Baby Hamster Kidney (BHK) cells were transfected with a cDNA expressing ABCA1 (ABCA1) or with a transfection vector alone (Mock). The transfected cells were radiolabeled with ^3H-cholesterol, washed and then incubated for 4 hours with media containing 20 μg/ml untreated or HOCl-treated (5 molar ratio HOCl to peptide) peptide 2F (SEQ ID NO:9). At the end of the incubation, the amount of ^3H-cholesterol (efflux) released from the cells was measured and expressed as the percent total (media plus cells) ^3H-cholesterol.

[9] = molecular target: T1, ABCA1; experiment: 3H-cholesterol efflux from ABCA1-transfected BHK cells, 4 hour incubation with peptide (Example 11); assay type: cell-based; set-up: expressed in transfected cells; host or cells: BHK (baby hamster kidney) cells; conditions: 20 μg/ml peptide, HOCl-treated (5 molar ratio HOCl to peptide)
Description: as §1

[10] = molecular target: T1, ABCA1; set-up: expressed in transfected cells; host or cells: BHK (baby hamster kidney) cells; conditions: cited from earlier work

For “Tyr192Phe apoA-I: Tyr192Phe mutant of human apoA-I made by PCR mutagenesis, bacterially expressed”, which “chlorination of residue 192 by HOCl” value [1] is on record?
Its value is “fails to chlorinate”.

And the cholesterol efflux promoted [2]?
Its cholesterol efflux promoted is “significantly decreased”.

And the “protective effect against apoA-I inactivation” value ([2]; by either HOCL or the MPO system)?
The value was “only a small protective effect”.

And the “ability to promote cholesterol efflux” value ([2]; increasing H2O2 in the complete MPO system, then incubated with PilB)?
Its value is “nearly the same as that of native apoA-I”.

What about the “rates of cholesterol efflux compared with native apoA-I” value ([2]; no oxidant, increasing protein concentrations) of the same substance?
The value was “virtually identical”.

And the “resistance to oxidative inactivation by MPO” value ([2]; when the concentration of H2O2 was high)?
The value was “somewhat resistant”.

Which results are given for “apoA-I: mature form of wild type human apoA-I, 243 amino acid polypeptide, purified from HDL”?
higher molecular weight species on SDS-PAGE ([3]; increasing concentrations of HOCl): generated higher molecular weight species that were resistant to SDS; higher molecular weight species on SDS-PAGE ([3]; increasing concentrations of acrolein): generated higher molecular weight species that were resistant to SDS; higher molecular weight species on SDS-PAGE ([3]; nitrated by reagent ONOO- or the complete MPO/H2O2/NO2 system): not observed; mean residue molar ellipticity at 222 nm [4]: concentration-dependent increase; thioflavin T binding ([5]; chlorination by HOCl or the complete MPO system, versus untreated apoA-I): markedly increased; amyloid-like structures ([5]; nitrated apoA-I): failed to reveal amyloid-like structures; amyloid-like structures ([5]; untreated apoA-I): no detectable amyloid-like structures; ability to activate LCAT [6]: looses its ability to activate LCAT; also recorded: loss of its ability; correlation (R) of impaired cholesterol removal with adduction of K226 ([2]; acrolein-treated apoA-I): 0.988; cholesterol efflux activity ([2]; after nitration of apoA-I (H2O2 with MPO plus NO2)): fails to affect; also recorded: only a small inhibitory effect; cholesterol efflux promoted [2]: significantly decreased; cholesterol efflux activity ([2]; apoA-I treated 1 hour with increasing concentrations of HOCl or of H2O2 with the complete chlorinating MPO system): progressively and extensively impaired; ability to remove cellular cholesterol by the ABCA1 pathway ([2]; apoA-I treated 24 hours with increasing concentrations of acrolein): progressively impaired; cholesterol efflux activity ([2]; apoA-I treated with ONOO-): no effect; ability to promote cholesterol efflux ([2]; complete MPO system with increasing H2O2 or increasing HOCl, then PilB to reduce Met(O) back to Met): partially restored; cholesterol efflux activity [7]: progressively and extensively impaired

Which “ability to remove cholesterol by ABCA1-independent mechanism” value [8] does the source give for “Ac-DWLKAFYDKVAEKLKEAF-NH2 [2F, 2F apoA-I mimetic peptide, unmodified]” here?
The value was “significantly reduced”.

And the “ability to remove cholesterol by ABCA1-dependent mechanism” value [9]?
Its value is “significantly reduced”.

What about the “removing cell lipids by the ABCA1 pathway” value [10] of the same substance?
The value was “mimic apoA-I”.

And the “ABCA1 dependent cholesterol efflux activity” value ([2]; peptide treated 1 hour with a 25 molar excess of HOCl, versus untreated peptide)?
Its value is “significantly reduced”.

For “Ac-DWFKAFYDKVAEKFKEAF-NH2 [4F, 4F apoA-I mimetic peptide, unmodified original]”, which “removing cell lipids by the ABCA1 pathway” value [10] is on record?
Its value is “mimic apoA-I”.
